The text below walks through data of the nanobody polyreactivity screen of Harvey et al. (2022).

The data set can be described thus: yeast display, Sf9 membrane polyspecificity reagent, FACS + sequencing; frameworks hold sequencing errors. A digest of the protocol:
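Galactose induction of a Saccharomyces cerevisiae BJ5465 synthetic nanobody display library ran 36–48 hours. The cells were then stained for 1 hour at 4 °C with 10% biotinylated, detergent-solubilized Sf9 membrane reagent, pulled down on streptavidin microbeads and FACS-sorted into low and high (top ~1%) gates on expression and reagent-binding fluorescence. Labels for polyreactivity follow the gate of origin.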
As for “QVQLVESGGGLVQAGGSLRLSCAASGRIFYSNAMGWYRQAPGKERELVAANTSGGNTYYADSVKGRFTISRDNAKNTVYLLMNSLKPEDTAVYYCAADHYWRRSGFGYWGQGTQVTVSS”, the “polyreactivity (PSR sort gate)” value is “low polyreactivity”.
For “QVQLVESGGGLVQAGGSLRLSCAASGRIFYSNTMGWYRQAPGKVRELVAAISRRGGSTYYADSVKGRFTISRDNAKTTVYLQMNSLKPEDTALYYCNTGYSTRLHDYWGQGTQVTVSS” the value was “high polyreactivity”.
Next, “QVQLVESGGGLVQAGGSLRLSCAASGRIFYSYAMGWYREAPGKERELVARITRGSSTYYADSVKGRFTISRDNAKNTVYLQMNSLKPEDTAVYYCAKSRYTALTNHWSHDYWGQGTQVTVSS”: “low polyreactivity”; “QVQLVESGGGLVQAGGSLRLSCAASGRIFYSYAMGWYRQAPGKEREFVAAISYSGGSTYYADSVKGRFTISRDNAKNTVFLQMNSLKPEDTAVYYCAAKVKFYTYYYWGQGTQVTVSS”: “high polyreactivity”.
As to “QVQLVESGGGLVQAGGSLRLSCAASGRIFYSYAMGWYRQAPGKERELVAAISSAGSTYYADSVKGRFTISRDNAKNTVYLQMNSLKPEDSAVYYCAAYRAGNSYYPRLNYWGQGTQVTVSS”, the “polyreactivity (PSR sort gate)” value is recorded as “high polyreactivity”.
With “QVQLVESGGGLVQAGGSLRLSCAASGRIFYSYGMGWYRQAPGKERELVATISIGGSTNYADSVKGRFTSSRDNAKNTVYLQMNSLKPEDTAVYYCNARAWFSYTSRRYTYWQEGYWGQGTQVTVSS”, the “polyreactivity (PSR sort gate)” value was “high polyreactivity”.
Take “QVQLVESGGGLVQAGGSLRLSCAASGRIFYTNAMGWYRQAPGKERELVAGIRFNGGSTYYADSVKGRFTISRDNAKNTVYLQMNSLKPEDTAVYYCAVRTYYSGYDSWGQGTQVTVSS”: the “polyreactivity (PSR sort gate)” value is given as “low polyreactivity”.
As for “QVQLVESGGGLVQAGGSLRLSCAASGRIFYTYAMGWYRQAPGKERELVAAINYSSASTYYADSVKGRFTISRDNAKNTVYLQMNSLKPEDTAVYYCNVAYVYGSFRRRPMGYWGQGTQVTVSS”, the “polyreactivity (PSR sort gate)” value is listed as “high polyreactivity”.
As to “QVQLVESGGGLVQAGGSLRLSCAASGRIFYTYAMGWYRQAPGKERELVAAITYRGGSTYYADSVKGRFTISRDNAKNTVYLQMNSLKPEDTAVYYCATQLWDRYGFGYWGQGTQVTVSS”, the “polyreactivity (PSR sort gate)” value is “high polyreactivity”.
Take “QVQLVESGGGLVQAGGSLRLSCAASGRIFYVYAMGWYRQAPGKERELVAAITSSGGTTYYADSVKGRFTISRDNAKNTVYLQMNSLKPEDTAVYYCNLIYRYGWGDYWGQGTQVTVSS”: the “polyreactivity (PSR sort gate)” value is recorded as “high polyreactivity”.
For “QVQLVESGGGLVQAGGSLRLSCAASGRIFYVYTMGWYRQAPGKERELVASIRRSGGSTYYADSVKGRFTISRDNAKNTVYLQMNSLKPEDTAVYYCAARYNSAANDKRYYYWGQGTQVTVSS” the value was “high polyreactivity”.
For “QVQLVESGGGLVQAGGSLRLSCAASGRIFYWNVMGWYRQAPGKERELVAAISSSGASTSYADSVKGRFTISRDNAKNTVYLQMNSLKPEDTAVYHCAARTRRNYRQYNYWGQGTQVTVSS” the value was “high polyreactivity”.
“QVQLVESGGGLVQAGGSLRLSCAASGRIFYYNAMGWYRPAPGKERELVAAINYRGGSTYYADSVKGRFTISRDNAKNTVYFQMNSLKPEDTAVYDCAARYWKDGSTYDYWGQGTQVTVSS”: the “polyreactivity (PSR sort gate)” value is on record as “high polyreactivity”.
Consider “QVQLVESGGGLVQAGGSLRLSCAASGRIFYYNAMGWYRQAPGKEMELVAAITSGGSTNYADSVKGRFTISRDNAKNTVYLQMNSLKPEDTAVYYCAADYYYYVAGVHYDYWGQGTQVTVSS”, for which the “polyreactivity (PSR sort gate)” value is reported as “low polyreactivity”.
On to “QVQLVESGGGLVQAGGSLRLSCAASGRIFYYNAMGWYRQAPGKERELVAAINYRGGSTYYADSVKGRFTISRDNAKNTVYLQMNSLKPEDTAVYYCAARYWEDGSTYDYWGQGTQVTVSS”, for which the “polyreactivity (PSR sort gate)” value is “high polyreactivity”.
Next, “QVQLVESGGGLVQAGGSLRLSCAASGRIFYYNDMGWYRQAPGKERELVATITIGNSTNYADSVKGRFTISRDNAKNTVYLQMKSLKPEDTAVYYCNADYSDVTTGDWRYENDYWGQGTQVTVSS”: “low polyreactivity”.
As to “QVQLVESGGGLVQAGGSLRLSCAASGRIFYYNDMGWYRQAPGKERELVATITIGNSTNYADSVKGRFTISRDNAKNTVYLQMNSLKPEDTAVYYCNADYSDVTTGDWRYENDYWGQGTQVTVSS”, the “polyreactivity (PSR sort gate)” value is listed as “low polyreactivity”.
For “QVQLVESGGGLVQAGGSLRLSCAASGRIFYYNTMGWYRQAPGKERELVARITYSGGRTYYADSVKGRFTISRDNAKNTVYLQMNSLKPEDTAVYYCNTAYRYFERQMYYWGQGTQVTVSS” the value was “high polyreactivity”; for “QVQLVESGGGLVQAGGSLRLSCAASGRIFYYNVMGWYRQAPGKERELVAAITWSGGSTYYADSVKGRFTISRDNAKNTVYLQMNSLKPEDTAVYYCAAKFSKWTLKKYYYWGQGTQVTVSS”, “high polyreactivity”; for “QVQLVESGGGLVQAGGSLRLSCAASGRIFYYNVMGWYRQAPGKERELVADIRSGDRTYYADSVKGRFTISRDNAKNTVYLQMNSLKPEDTAVYYCAADGWYRRGYYYWGQGTQVTVSS”, “low polyreactivity”.
On to “QVQLVESGGGLVQAGGSLRLSCAASGRIFYYYALGWYRQAPGKERELVAAISSIDGTTYYADSVKGRFTISRDNAKNTVYLQMNSLKPEDTAVYYCAAEDPADQYDYWGQGTQVTVSS”, for which the “polyreactivity (PSR sort gate)” value is given as “high polyreactivity”.
For “QVQLVESGGGLVQAGGSLRLSCAASGRIFYYYAMGWYRQAPGKEREFVAAIRVTSDSTYYADSVKGRFTISRDNAKNTVYLQMNSLKPEDTAVYYCAADSFYFPYDYWGQGTQVTVSS” the value was “high polyreactivity”; for “QVQLVESGGGLVQAGGSLRLSCAASGRIFYYYAMGWYRQAPGKEREFVADISARGGSTYYADSVKGRFTISRDNAKKTVYLEMNSLKPEDTAVYYCAATTGLYTRYGYWGQGTQVTVSS”, “high polyreactivity”.
For the sequence “QVQLVESGGGLVQAGGSLRLSCAASGRIFYYYAMGWYRQAPGKERELVAAITRGGGTYYADSVKGRFTISRDNAKNTVYLQMNSLKPEDTAVYYCAKRGPPESHHPYRYRFDYWGQGTQVTVSS”, the “polyreactivity (PSR sort gate)” value is “low polyreactivity”.
For “QVQLVESGGGLVQAGGSLRLSCAASGRIFYYYAMGWYRQAPGKERELVAAITSGGRTYYADSVKGRFTISRDNAKNTVYLQMNSLKPEDTAVYYCAADRTYTYLGPGYEYWGQGTQVTVSS” the value was “low polyreactivity”; for “QVQLVESGGGLVQAGGSLRLSCAASGRIFYYYAMGWYRQAPGKERELVAVISRGGRTKYADSVKGRFTISRDNAKNTVYLQMNSLKPEDTAVYYCAVGLSGASSGMGYWGQGTQVTVSS”, “high polyreactivity”.
For “QVQLVESGGGLVQAGGSLRLSCAASGRIFYYYDMGWYRQAPGNERELVAGINDDSSTYYADSVKGRFTISRDNAKNTVYLQMNSLKPEDTAVYYCNAGPSWYPCWYYYWGQGTQVTVSS”, the “polyreactivity (PSR sort gate)” value is reported as “low polyreactivity”.
For “QVQLVESGGGLVQAGGSLRLSCAASGRIFYYYTMGWYRQAPGKERELVAAITSNGGSTYYADSVKGRFTISRDNAKNTVYLQMNSLKPEDTAVYYCAADSYSYRYYYWGQGTQVTVSS” the value was “high polyreactivity”; for “QVQLVESGGGLVQAGGSLRLSCAASGRIFYYYTMGWYRQAPGKERELVAGISRSGDRTYYADSVKGRFTISRDNAKNTVYLQMNSLKPEDTAVYYCATRWSSARMDYWGLGTQVTVSS”, “high polyreactivity”.
For “QVQLVESGGGLVQAGGSLRLSCAASGRIGKYAMGWYRQAPGKERELVATISSTGTTNYADSVKGRFTISRDNAKNTVYLQMNSLKPEDTAVYYCAGRWEYVGYRRRYYRFDYWGQGTQVTVSS” the value was “high polyreactivity”; for “QVQLVESGGGLVQAGGSLRLSCAASGRIIAKYAMGWYRQAPGKERELVAAINWGGGSTYYADSVKGRFTISRDNAKITVYLQMNSLKPEDTAVYYCNRTPRSKGNYWGQGTQVTVSS”, “high polyreactivity”.
With “QVQLVESGGGLVQAGGSLRLSCAASGRIIARYAMGWSRQAPGKERELVAAISRGGGRTYYADSVKGRFTISRDNATNTVYLQMNSLKPEDTAVYYCAADAYSIASVGYDYWGQGTQVTVSS”, the “polyreactivity (PSR sort gate)” value is recorded as “high polyreactivity”.
With “QVQLVESGGGLVQAGGSLRLSCAASGRIIDDNAMGWYRQAPGKERELVASITVSTGSTYYADSVKGRFTISRDNAKNTVYLQMNSLKPEDTAVYYCDAPYITPYGTYVFSSDYWGQGTQVTVSS”, the “polyreactivity (PSR sort gate)” value was “low polyreactivity”.
As for “QVQLVESGGGLVQAGGSLRLSCAASGRIIDRNAMGWYRQAPGKERELVAAISSSGSTNYADSVKGRFTISRDNAKNTVYLQMNSLKPEVTAVYYCAARWRSVLAAGTRPVSFDYWGQGTQVTVSS”, the “polyreactivity (PSR sort gate)” value is recorded as “low polyreactivity”.
In the case of “QVQLVESGGGLVQAGGSLRLSCAASGRIIGGNAMGWYRPAPGKEREFVAAIRASGGSTHYADSVKGRFTISRDNAKNTVYLQMNSLKPEDTAVYYCNTYRARLGTTFIDYDYWGQGTQVTVSS”, the “polyreactivity (PSR sort gate)” value was “high polyreactivity”.
For “QVQLVESGGGLVQAGGSLRLSCAASGRIIGGYAMGWYRQAPGKERELVAAITFRSGTTYYADSVKGRFTISRDNAKNTVYLQMNSLKPEDTAVYYCAARWGPYAFTYVRTYDYWGQGTQVTVSS” the value was “low polyreactivity”; for “QVQLVESGGGLVQAGGSLRLSCAASGRIIGRYAMGWYRPAPGKERELVAAISSSGSTYYADSVKGRFTISRDNAKNTVYLQMNSLKPEDTAVYYSAAYYRGRAYISYGYWGQGTQVTVSS”, “high polyreactivity”.
For “QVQLVESGGGLVQAGGSLRLSCAASGRIIGSYAMGWYRQAPGKERELVAAISRGGITNYADSVKGRFTIARDNAKNTVYLQMNSLKPEDTAVYYCAVGIRYRGRQGYYGYYTYDYWGQGTQVTVSS”, the “polyreactivity (PSR sort gate)” value is on record as “high polyreactivity”.
As to “QVQLVESGGGLVQAGGSLRLSCAASGRIIGTNARGWYRQAPGNERELVASISSRSTRTYYADSVKGRFTISRDNAKNTVYLQMNSLKPEDTAVYYCAARYPYYVHYDYWGQGTQVTVSS”, the “polyreactivity (PSR sort gate)” value was “high polyreactivity”.
For “QVQLVESGGGLVQAGGSLRLSCAASGRIIIGYVMGWYRQAPGKERELVATISYSGGSTYADSVKGRFTISRDNAKNTVYLQMNSLKPEDTAVYYCAARPYYRYYRYPYGYWGQGTQVTVSS” the value was “high polyreactivity”.
Next, “QVQLVESGGGLVQAGGSLRLSCAASGRIIKFYAMGWYRQAPGKERELVARISRSGGRTYYADSVKGRFTISRDNAKITVYLQMNSLKPEDTAVYYCAADTQSVATYDYWGQGTQVTVSS”: “low polyreactivity”.
